Where a chain is given by its changes, count along the chain named.
B1: GLS3000 S27eA (antibody, name in Kabat numbering, V domains shown)
VH: QVQLVESGGGVVQPGRSLRLSCAASGFTFSNAWMHWVRQAPGKGLEWVAQIKAKSNNYATYYAESVKGRFTISRDDSKNSLYLQMNSLKTEDTAVYYCRYVHYGAYYGVDAWGQGTTVTVSS
VL: DIVMTQSPLSLPVTPGEPASISCRSSQSLVHANRNTYLHWYQQKPGQAPRLLIYKVSNRFSGVPDRFSGSGSGTDFTLKISRVEAEDVGVYYCGQGTQVPYTFGQGTKLEIK
notes: one-arm format as m2
B2: GLS3000 G91D (antibody, name in Kabat numbering, V domains shown)
VH: B1 VH
VL: B1 VL with A32S, G96D
notes: one-arm format as m2
B3: GLS3000 F55K (antibody, name in Kabat numbering, V domains shown)
VH: B1 VH
VL: B1 VL with A32S, F60K
notes: one-arm format as m2
B4: GLS3000 G89Q (antibody, name in Kabat numbering, V domains shown)
VH: B1 VH
VL: B1 VL with A32S, G94Q
notes: one-arm format as m2
B5: GLS3000 G89K (antibody, name in Kabat numbering, V domains shown)
VH: B1 VH
VL: B1 VL with A32S, G94K
notes: one-arm format as m2
B6: GLS3000 G89T (antibody, name in Kabat numbering, V domains shown)
VH: B1 VH
VL: B1 VL with A32S, G94T
notes: one-arm format as m2
B7: GLS3000 F55S (antibody, name in Kabat numbering, V domains shown)
VH: B1 VH
VL: B1 VL with A32S, F60S
notes: one-arm format as m2
B8: GLS3000 F55W (antibody, name in Kabat numbering, V domains shown)
VH: B1 VH
VL: B1 VL with A32S, F60W
notes: one-arm format as m2
B9: GLS3000 H27dA (antibody, name in Kabat numbering, V domains shown)
VH: B1 VH
VL: B1 VL with H31A, A32S
notes: one-arm format as m2
B10: GLS3000 H27dE (antibody, name in Kabat numbering, V domains shown)
VH: B1 VH
VL: B1 VL with H31E, A32S
notes: one-arm format as m2
B11: GLS3000 G89R (antibody, name in Kabat numbering, V domains shown)
VH: B1 VH
VL: B1 VL with A32S, G94R
notes: one-arm format as m2
B12: GLS3000 G89Y (antibody, name in Kabat numbering, V domains shown)
VH: B1 VH
VL: B1 VL with A32S, G94Y
notes: one-arm format as m2
B13: GLS3000 F55E (antibody, name in Kabat numbering, V domains shown)
VH: B1 VH
VL: B1 VL with A32S, F60E
notes: one-arm format as m2
B14: GLS3000 F55Q (antibody, name in Kabat numbering, V domains shown)
VH: B1 VH
VL: B1 VL with A32S, F60Q
notes: one-arm format as m2
B15: GLS3000 G91Y (antibody, name in Kabat numbering, V domains shown)
VH: B1 VH
VL: B1 VL with A32S, G96Y
notes: one-arm format as m2
B16: GLS3000 G89N (antibody, name in Kabat numbering, V domains shown)
VH: B1 VH
VL: B1 VL with A32S, G94N
notes: one-arm format as m2
B17: GLS3000 G89H (antibody, name in Kabat numbering, V domains shown)
VH: B1 VH
VL: B1 VL with A32S, G94H
notes: one-arm format as m2
B18: GLS3000 F55P (antibody, name in Kabat numbering, V domains shown)
VH: B1 VH
VL: B1 VL with A32S, F60P
notes: one-arm format as m2
B19: GLS3000 F55Y (antibody, name in Kabat numbering, V domains shown)
VH: B1 VH
VL: B1 VL with A32S, F60Y
notes: one-arm format as m2
B20: GLS3000 F55G (antibody, name in Kabat numbering, V domains shown)
VH: B1 VH
VL: B1 VL with A32S, F60G
notes: one-arm format as m2
B21: GLS3000 G89V (antibody, name in Kabat numbering, V domains shown)
VH: B1 VH
VL: B1 VL with A32S, G94V
notes: one-arm format as m2
B22: GLS3000 G89P (antibody, name in Kabat numbering, V domains shown)
VH: B1 VH
VL: B1 VL with A32S, G94P
notes: one-arm format as m2
B23: GLS3000 G89I (antibody, name in Kabat numbering, V domains shown)
VH: B1 VH
VL: B1 VL with A32S, G94I
notes: one-arm format as m2
B24: GLS3000 G91T (antibody, name in Kabat numbering, V domains shown)
VH: B1 VH
VL: B1 VL with A32S, G96T
notes: one-arm format as m2
B25: GLS3000 G91E (antibody, name in Kabat numbering, V domains shown)
VH: B1 VH
VL: B1 VL with A32S, G96E
notes: one-arm format as m2
B26: GLS3000 G89L (antibody, name in Kabat numbering, V domains shown)
VH: B1 VH
VL: B1 VL with A32S, G94L
notes: one-arm format as m2
B27: GLS3000 F55A (antibody, name in Kabat numbering, V domains shown)
VH: B1 VH
VL: B1 VL with A32S, F60A
notes: one-arm format as m2
B28: GLS3000 G89E (antibody, name in Kabat numbering, V domains shown)
VH: B1 VH
VL: B1 VL with A32S, G94E
notes: one-arm format as m2
B29: GLS3000 F55H (antibody, name in Kabat numbering, V domains shown)
VH: B1 VH
VL: B1 VL with A32S, F60H
notes: one-arm format as m2
B30: GLS3000 F55R (antibody, name in Kabat numbering, V domains shown)
VH: B1 VH
VL: B1 VL with A32S, F60R
notes: one-arm format as m2
B31: GLS3000 F55T (antibody, name in Kabat numbering, V domains shown)
VH: B1 VH
VL: B1 VL with A32S, F60T
notes: one-arm format as m2
B32: GLS3000 F55V (antibody, name in Kabat numbering, V domains shown)
VH: B1 VH
VL: B1 VL with A32S, F60V
notes: one-arm format as m2
B33: GLS3000 F55D (antibody, name in Kabat numbering, V domains shown)
VH: B1 VH
VL: B1 VL with A32S, F60D
notes: one-arm format as m2
B34: GLS3000 F55I (antibody, name in Kabat numbering, V domains shown)
VH: B1 VH
VL: B1 VL with A32S, F60I
notes: one-arm format as m2
B35: GLS3000 G89W (antibody, name in Kabat numbering, V domains shown)
VH: B1 VH
VL: B1 VL with A32S, G94W
notes: one-arm format as m2
B36: GLS3000 G91P (antibody, name in Kabat numbering, V domains shown)
VH: B1 VH
VL: B1 VL with A32S, G96P
notes: one-arm format as m2
B37: GLS3000 G89A (antibody, name in Kabat numbering, V domains shown)
VH: B1 VH
VL: B1 VL with A32S, G94A
notes: one-arm format as m2
B38: GLS3000 F55L (antibody, name in Kabat numbering, V domains shown)
VH: B1 VH
VL: B1 VL with A32S, F60L
notes: one-arm format as m2
B39: GLS3000 G89F (antibody, name in Kabat numbering, V domains shown)
VH: B1 VH
VL: B1 VL with A32S, G94F
notes: one-arm format as m2
B40: GLS3000 G91S (antibody, name in Kabat numbering, V domains shown)
VH: B1 VH
VL: B1 VL with A32S, G96S
notes: one-arm format as m2
B41: GLS3000 G89D (antibody, name in Kabat numbering, V domains shown)
VH: B1 VH
VL: B1 VL with A32S, G94D
notes: one-arm format as m2
B42: GLS3000 H27dD (antibody, name in Kabat numbering, V domains shown)
VH: B1 VH
VL: B1 VL with H31D, A32S
notes: one-arm format as m2
B43: GLS3000 G89M (antibody, name in Kabat numbering, V domains shown)
VH: B1 VH
VL: B1 VL with A32S, G94M
notes: one-arm format as m2
B44: GLS3000 F55M (antibody, name in Kabat numbering, V domains shown)
VH: B1 VH
VL: B1 VL with A32S, F60M
notes: one-arm format as m2
B45: GLS3000 F55N (antibody, name in Kabat numbering, V domains shown)
VH: B1 VH
VL: B1 VL with A32S, F60N
notes: one-arm format as m2
B46: GLS3000 G91A (antibody, name in Kabat numbering, V domains shown)
VH: B1 VH
VL: B1 VL with A32S, G96A
notes: one-arm format as m2

Each binder was assayed against CD3ε homodimer protein (human, UniProt P07766 23-126, limits assumed) (assay: SPR, immobilized CD3ε homodimer;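 note: biacore T200 surface plasmon resonance at 25 °C, antibody variants flowed as analytes over amine-coupled CD3ε homodimer on a CM4 chip, variant binding amount divided by that of GLS3000 antibody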).
CD3ε homodimer protein, sequence (P07766 23-126 limits assumed): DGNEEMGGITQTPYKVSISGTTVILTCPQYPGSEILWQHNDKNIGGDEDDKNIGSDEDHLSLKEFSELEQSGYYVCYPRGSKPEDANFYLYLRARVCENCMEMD

ratio of amounts bound (vs GLS3000) | Binder
1.03 | B1
0.16 | B2
1.33 | B3
0.38 | B4
0.4 | B5
1.03 | B6
0.69 | B7
0.69 | B8
0.48 | B9
0.23 | B10
0.19 | B11
1.19 | B12
0.72 | B13
0.91 | B14
0.17 | B15
0.8 | B16
0.7 | B17
1.16 | B18
0.92 | B19
1.31 | B20
1.63 | B21
0.35 | B22
1.07 | B23

ratio of amounts bound (vs GLS3000) | Binder
0.26 | B24
0.16 | B25
0.94 | B26
1.13 | B27
0.26 | B28
0.94 | B29
1.31 | B30
0.41 | B31
0.71 | B32
0.65 | B33
0.82 | B34
0.5 | B35
0.27 | B36
1.13 | B37
0.76 | B38
1.09 | B39
0.26 | B40
0.33 | B41
0.22 | B42
0.52 | B43
0.8 | B44
0.98 | B45
0.27 | B46
